Here are results for one molecule from publication PMC3773608 (Journal of molecular neuroscience : MN, 2009).

For the assay, the target named is GST-PSD-95 (rat, UniProt P31016 1-724). The assay can be described thus: co-IP.
GST-PSD-95, sequence (P31016 whole entry): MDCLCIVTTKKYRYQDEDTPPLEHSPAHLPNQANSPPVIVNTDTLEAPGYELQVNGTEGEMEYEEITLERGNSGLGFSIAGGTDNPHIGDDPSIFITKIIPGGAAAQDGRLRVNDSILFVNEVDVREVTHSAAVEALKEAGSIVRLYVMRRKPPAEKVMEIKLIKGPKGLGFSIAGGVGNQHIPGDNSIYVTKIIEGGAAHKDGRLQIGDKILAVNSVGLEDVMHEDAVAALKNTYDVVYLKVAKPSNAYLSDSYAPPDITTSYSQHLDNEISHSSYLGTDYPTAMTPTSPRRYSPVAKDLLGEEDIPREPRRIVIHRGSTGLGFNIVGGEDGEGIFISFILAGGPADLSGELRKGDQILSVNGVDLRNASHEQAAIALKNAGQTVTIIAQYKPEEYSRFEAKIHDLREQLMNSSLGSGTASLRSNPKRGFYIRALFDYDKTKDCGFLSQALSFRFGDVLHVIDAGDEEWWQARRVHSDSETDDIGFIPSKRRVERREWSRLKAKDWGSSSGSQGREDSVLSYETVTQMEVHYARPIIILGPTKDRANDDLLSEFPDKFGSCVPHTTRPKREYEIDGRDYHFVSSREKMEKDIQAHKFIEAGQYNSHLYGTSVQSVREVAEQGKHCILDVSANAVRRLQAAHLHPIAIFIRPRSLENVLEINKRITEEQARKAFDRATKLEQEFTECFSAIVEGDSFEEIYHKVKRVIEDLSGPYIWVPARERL

B1: GST-ILK (enzyme, rat, UniProt Q99J82 1-452, looked up)
chain: MDDIFTQCREGNAVAVRLWLDNTENDLNQGDDHGFSPLHWACREGRSAVVEMLIMRGARINVMNRGDDTPLHLAASHGHRDIVQKLLQYKADINAVNEHGNVPLHYACFWGQDQVAEDLVANGALVSICNKYGEMPVDKAKAPLRELLRERAEKMGQNLNRIPYKDTFWKGTTRTRPRNGTLNKHSGIDFKQLNFLAKLNENHSGELWKGRWQGNDIVVKVLKVRDWSTRKSRDFNEECPRLRIFSHPNVLPVLGACQAPPAPHPTLITHWMPYGSLYNVLHEGTNFVVDQSQAVKFALDMARGMAFLHTLEPLIPRHALNSRSVMIDEDMTARISMADVKFSFQCPGRMYAPAWVAPEALQKKPEDTNRRSADMWSFAVLLWELVTREVPFADLSNMEIGMKVALEGLRPTIPPGISPHVCKLMKICMNEDPAKRPKFDMIVPILEKMQDK
As to B1, the binding result is reported as “binds”.
